Experimental findings from the supplement of paper PMC10567573 are described below.

Sequences and labels used below:
B1: PPEF2 (parent)
chain: DHSGFISLDEFRQTWKLFSSHMNI
B2: NCF4 (parent)
chain: FGPDSKSSALACTLPTLPAKVYVG
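Note: lentivirally expressed fusions sorted by FACS into six bins by GFP to DsRed ratio, PSI derived from sequencing read proportions per bin multiplied by bin number.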

One series covers variants of B1. Put plainly: protein stability index of a GFP-peptide fusion (GPS, HEK-293T) (PSI 1-6); higher = more stable. Particulars: c terminus: a fixed tail appended.
For the variant DHSGEISLDEFRQTWKLFSSHMNI, the protein stability index turned out to be 1.65. The same measure, in the same setting: then DHSGIISLDEFRQTWKLFSSHMNI, with 1.86. As for DHSGCISLDEFRQTWKLFSSHMNI, the protein stability index came to 1.66. On to DHSGQISLDEFRQTWKLFSSHMNI, for which the protein stability index was 1.73. Turning to DHSGHISLDEFRQTWKLFSSHMNI, the protein stability index was 1.77. Still for that read-out and setting: then DHSGGISLDEFRQTWKLFSSHMNI, with 2.5; and DHSGRISLDEFRQTWKLFSSHMNI, with 1.28; and DHSGAISLDEFRQTWKLFSSHMNI, with 1.33. As for DHSGNISLDEFRQTWKLFSSHMNI, the protein stability index amounted to 2.13. DHSGVISLDEFRQTWKLFSSHMNI: the protein stability index came out at 1.53. Regarding DHSGMISLDEFRQTWKLFSSHMNI, the protein stability index was 1.4. Same read-out and setting: with DHSGYISLDEFRQTWKLFSSHMNI the figure was 2.35. Consider DHSGPISLDEFRQTWKLFSSHMNI, for which the protein stability index turned out to be 2.12. With DHSGLISLDEFRQTWKLFSSHMNI, the protein stability index was determined as 1.92. Turning to DHSGWISLDEFRQTWKLFSSHMNI, the protein stability index was found to be 1.93. Regarding DHSGDISLDEFRQTWKLFSSHMNI, the protein stability index was 1.41. Still for that read-out and setting: then DHSGSISLDEFRQTWKLFSSHMNI, with 1.85; and DHSGTISLDEFRQTWKLFSSHMNI, with 1.54; and DHSGKISLDEFRQTWKLFSSHMNI, with 1.52. As for DHSGFVSLDEFRQTWKLFSSHMNI, the protein stability index is 1.41. The same measure, in the same setting: with DHSGFYSLDEFRQTWKLFSSHMNI the figure was 1.89; with DHSGFWSLDEFRQTWKLFSSHMNI, 1.82; with DHSGFFSLDEFRQTWKLFSSHMNI, 1.03. On the same count and under the same terms, with DHSGFNSLDEFRQTWKLFSSHMNI the figure was 1.6; with DHSGFLSLDEFRQTWKLFSSHMNI, 1.65. Take DHSGFPSLDEFRQTWKLFSSHMNI: the protein stability index worked out at 2.02. On the same count and under the same terms, then DHSGFASLDEFRQTWKLFSSHMNI, with 1.39; and DHSGFTSLDEFRQTWKLFSSHMNI, with 1.71.

Regarding DHSGFDSLDEFRQTWKLFSSHMNI, the protein stability index worked out at 1.62.

In the case of DHSGFQSLDEFRQTWKLFSSHMNI, the protein stability index turned out to be 1.91.

As for DHSGFRSLDEFRQTWKLFSSHMNI, the protein stability index was determined as 2.08. The same measure, in the same setting: then DHSGFMSLDEFRQTWKLFSSHMNI, with 2.32; and DHSGFCSLDEFRQTWKLFSSHMNI, with 1.86. The same measure, in the same setting: then DHSGFESLDEFRQTWKLFSSHMNI, with 1.66. Still for that read-out and setting: with DHSGFSSLDEFRQTWKLFSSHMNI the figure was 1.75; with DHSGFGSLDEFRQTWKLFSSHMNI, 1.28. Consider DHSGFKSLDEFRQTWKLFSSHMNI, for which the protein stability index is 1.94. In the case of DHSGFHSLDEFRQTWKLFSSHMNI, the protein stability index was 1.71. Take DHSGFISMDEFRQTWKLFSSHMNI: the protein stability index was 1.88. As to DHSGFISNDEFRQTWKLFSSHMNI, the protein stability index is 1.62. Still for that read-out and setting: then DHSGFISPDEFRQTWKLFSSHMNI, with 1.9; and DHSGFISIDEFRQTWKLFSSHMNI, with 2.24. Still for that read-out and setting: with DHSGFISADEFRQTWKLFSSHMNI the figure was 1.62; with DHSGFISKDEFRQTWKLFSSHMNI, 1.97. Still for that read-out and setting: with DHSGFISDDEFRQTWKLFSSHMNI the figure was 2.13; with DHSGFISGDEFRQTWKLFSSHMNI, 2.13; with DHSGFISFDEFRQTWKLFSSHMNI, 2.59. With DHSGFISEDEFRQTWKLFSSHMNI, the protein stability index was determined as 1.85. On the same count and under the same terms, with DHSGFISHDEFRQTWKLFSSHMNI the figure was 2.44; with DHSGFISCDEFRQTWKLFSSHMNI, 1.71.

The variants in another series derive from B2. The series is described as above. Particulars: c terminus: a fixed tail appended.
In the case of FGPDSKSSALACTLPTLPAKVYKG, the protein stability index came out at 2.86.

Consider FGPDSKSSALACTLPTLPAKVYLG, for which the protein stability index was 2.67. As to FGPDSKSSALACTLPTLPAKVYNG, the protein stability index turned out to be 3.2. On the same count and under the same terms, with FGPDSKSSALACTLPTLPAKVYEG the figure was 2.81; with FGPDSKSSALACTLPTLPAKVYYG, 2.39; with FGPDSKSSALACTLPTLPAKVYMG, 2.34. For the variant FGPDSKSSALACTLPTLPAKVYFG, the protein stability index is 1.78. As for FGPDSKSSALACTLPTLPAKVYSG, the protein stability index was found to be 2.62.

For FGPDSKSSALACTLPTLPAKVYQG, the protein stability index was found to be 2.36.

Turning to FGPDSKSSALACTLPTLPAKVYGG, the protein stability index came to 2.66.

On to FGPDSKSSALACTLPTLPAKVYPG, for which the protein stability index was determined as 2.77. Regarding FGPDSKSSALACTLPTLPAKVYWG, the protein stability index came out at 2.07. Turning to FGPDSKSSALACTLPTLPAKVYHG, the protein stability index turned out to be 3.06. On the same count and under the same terms, then FGPDSKSSALACTLPTLPAKVYIG, with 2.29; and FGPDSKSSALACTLPTLPAKVYTG, with 2.96. On the same count and under the same terms, with FGPDSKSSALACTLPTLPAKVYDG the figure was 3.21; with FGPDSKSSALACTLPTLPAKVYAG, 2.29; with FGPDSKSSALACTLPTLPAKVYCG, 2.72. On to FGPDSKSSALACTLPTLPAKVYRG, for which the protein stability index turned out to be 2.81. As for FGPDSKSSALACTLPTLPAKVYVM, the protein stability index stood at 1.63. Still for that read-out and setting: with FGPDSKSSALACTLPTLPAKVYVW the figure was 2.29; with FGPDSKSSALACTLPTLPAKVYVP, 1.68. Same read-out and setting: then FGPDSKSSALACTLPTLPAKVYVN, with 1.85.

On to FGPDSKSSALACTLPTLPAKVYVQ, for which the protein stability index came to 2.22. FGPDSKSSALACTLPTLPAKVYVV: the protein stability index worked out at 1.84. For FGPDSKSSALACTLPTLPAKVYVT, the protein stability index turned out to be 1.9. The same measure, in the same setting: with FGPDSKSSALACTLPTLPAKVYVF the figure was 2.92.

Turning to FGPDSKSSALACTLPTLPAKVYVA, the protein stability index worked out at 1.83.

With FGPDSKSSALACTLPTLPAKVYVE, the protein stability index was 2.55.

For FGPDSKSSALACTLPTLPAKVYVI, the protein stability index is 1.74.

As for FGPDSKSSALACTLPTLPAKVYVR, the protein stability index was found to be 2.29. FGPDSKSSALACTLPTLPAKVYVC: the protein stability index stood at 1.65. Take FGPDSKSSALACTLPTLPAKVYVD: the protein stability index is 3.36. On the same count and under the same terms, with FGPDSKSSALACTLPTLPAKVYVS the figure was 1.97; with FGPDSKSSALACTLPTLPAKVYVH, 2.08; with FGPDSKSSALACTLPTLPAKVYVY, 1.75. Still for that read-out and setting: then FGPDSKSSALACTLPTLPAKVYVK, with 2.88. Still for that read-out and setting: with FGPDSKSSALACTLPTLPAKVYVL the figure was 2.56.

Take FGPDSKSSALACTLPTLPAKVSVG: the protein stability index was 3.4. Same read-out and setting: with FGPDSKSSALACTLPTLPAKVQVG the figure was 3.12; with FGPDSKSSALACTLPTLPAKVRVG, 3.24; with FGPDSKSSALACTLPTLPAKVTVG, 2.93. As to FGPDSKSSALACTLPTLPAKVWVG, the protein stability index turned out to be 1.67. Regarding FGPDSKSSALACTLPTLPAKVVVG, the protein stability index turned out to be 2.37.
